Columns and labels:
[1] = target: Wzc^K540M4YE (E. coli E69 (O9a:K30)); experiment: cryo-EM 2D classification of particles; purified protein ~1.8-2 mg/ml vitrified on grids, reference-free 2D class averages
[2] = target: Wzc^K540M4YE (E. coli E69 (O9a:K30)); experiment: cryo-EM structure; purified protein ~2 mg/ml in LMNG, apo and with ADP and Mg2+; C1 and C8 reconstructions
[3] = target: Wzc^K540M (E. coli E69 (O9a:K30)); experiment: as above
[4] = target: Wzc^K540M (E. coli E69 (O9a:K30)); experiment: negative-stain EM; purified protein around 0.05 mg/ml on carbon-coated grids, 0.75% uranyl formate
[5] = target: Wzc^K540M double (717 and 718) Tyr to Glu mutant (E. coli E69 (O9a:K30)) (UniProt P76387); experiment: EM (kind not stated); particles of purified Tyr to Glu mutants of Wzc^K540M on EM grids, percentage of octamers (Supplementary Fig. 8a)
[6] = target: Wzc^K540M triple (715, 717 and 718) Tyr to Glu mutant (E. coli E69 (O9a:K30)) (UniProt P76387); experiment: as above
[7] = target: Wzc^K540MΔMotif3 (E. coli E69 (O9a:K30)) (UniProt P76387); experiment: cryo-EM 2D classification of particles; purified protein ~1.8-2 mg/ml vitrified on grids, reference-free 2D class averages
Wzb treated Wzc = Wzb treated Wzc (E. coli E69 (O9a:K30), UniProt P76387 1-720); experiment: as above; settings: both partners purified

Wzc^K540M4YE (from UniProt P76387 1-720) (enzyme)
percent of particles that are octamers [1]: 50% | stoichiometry N [2]: 8

Wzc^K540M (from UniProt P76387 1-720) (enzyme)
stoichiometry N [3]: 8 | stoichiometry N [4]: 8

Wzc^K540M double (717 and 718) Tyr to Glu mutant (from UniProt P76387 1-720) (enzyme)
stoichiometry N [5]: 8

Wzc^K540M triple (715, 717 and 718) Tyr to Glu mutant (from UniProt P76387 1-720) (enzyme)
stoichiometry N [6]: 8

Wzc^K540MΔMotif3 (from UniProt P76387 1-720) (enzyme)
stoichiometry N [7]: 8

B1: Wzb treated Wzc (enzyme)
chain: MTSVTSKQSTILGSDEIDLGRVIGELIDHRKLIISITSVFTLFAILYALLATPIYETDALIQIEQKQGNAILSSLSQVLPDGQPQSAPETALLQSRMILGKTIDDLNLQIQIEQKYFPVIGRGLARLMGEKPGNIDITRLYLPDSDDISNNTPSIILTVKDKENYSINSDGIQLNGVVGTLLNEKGISLLVNEIDAKPGDQFVITQLPRLKAISDLLKSFSVADLGKDTGMLTLTLTGDNPKRISHILDSISQNYLAQNIARQAAQDAKSLEFLNQQLPKVRAELDSAEDKLNAYRKQKDSVDLNMEAKSVLDQIVNVDNQLNELTFREAEVSQLYTKEHPTYKALMEKRQTLQEEKSKLNKRVSSMPSTQQEVLRLSRDVESGRAVYLQLLNRQQELNIAKSSAIGNVRIIDNAVTDPNPVRPKKTIIIVIGVVLGLIVSVVLVLFQVFLRRGIESPEQLEEIGINVYASIPISEWLTKNARQSGKVRKNQSDTLLAVGNPADLAVEAIRGLRTSLHFAMMEAKNNVLMISGASPSAGKTFISSNLAATIAITGKKVLFIDADLRKGYAHKMFGHKNDKGLSEFLSGQAAAEMIIDKVEGGGFDYIGRGQIPPNPAELLMHPRFEQLLNWASQNYDLIIIDTPPILAVTDAAIIGRYAGTCLLVARFEKNTVKEIDVSMKRFEQSGVVVKGCILNGVVKKASSYYRYGHNHYGYSYYDKK
modifications: dephosphorylated by phosphatase Wzb; about 0.1% octameric particles; C-terminal His6 omitted; the PDB entity is the K540M construct, reverted to K540 / dephosphorylated by phosphatase Wzb; about 0.1%
stoichiometry N (Wzb treated Wzc): 8

Reference: paper PMC8285477, “The molecular basis of regulation of bacterial capsule assembly by Wzc” (Nature Communications, 2021)
